Legend:
VACV A33 protein [1] = target: T1, VACV A33 protein (vaccinia virus, UniProt P68617 58-185); test: cell-based or functional assay
VACV A33 protein [2] = target: T1, VACV A33 protein; test: purified antigen ELISA
VACV A33 protein [3] = target: T1, VACV A33 protein; test: lysate ELISA
VACV H3 protein = target: T2, VACV H3 protein (vaccinia virus, UniProt P07240 1-278); test: lysate ELISA
T2 sequence: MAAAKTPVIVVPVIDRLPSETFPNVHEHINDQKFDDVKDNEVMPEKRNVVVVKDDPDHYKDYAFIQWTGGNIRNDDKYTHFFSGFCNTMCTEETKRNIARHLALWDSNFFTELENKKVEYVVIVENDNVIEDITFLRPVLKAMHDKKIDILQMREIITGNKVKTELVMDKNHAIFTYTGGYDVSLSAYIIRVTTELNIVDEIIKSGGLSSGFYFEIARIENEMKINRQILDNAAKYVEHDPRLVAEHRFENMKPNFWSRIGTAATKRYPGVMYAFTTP

VACV L1 protein [4] = target: T3, VACV L1 protein (vaccinia virus, UniProt P07612 1-185); test: cell-based or functional assay
T3 sequence: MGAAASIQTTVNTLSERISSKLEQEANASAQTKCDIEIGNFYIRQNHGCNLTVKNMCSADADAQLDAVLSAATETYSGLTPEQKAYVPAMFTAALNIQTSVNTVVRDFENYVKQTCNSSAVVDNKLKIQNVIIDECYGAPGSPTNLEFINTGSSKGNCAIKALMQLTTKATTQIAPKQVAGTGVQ

VACV L1 protein [5] = target: T3, VACV L1 protein; test: purified antigen ELISA
VACV D8 protein [6] = target: T4, VACV D8 protein (vaccinia virus, UniProt P04195 1-261); test: cell-based or functional assay
T4 sequence: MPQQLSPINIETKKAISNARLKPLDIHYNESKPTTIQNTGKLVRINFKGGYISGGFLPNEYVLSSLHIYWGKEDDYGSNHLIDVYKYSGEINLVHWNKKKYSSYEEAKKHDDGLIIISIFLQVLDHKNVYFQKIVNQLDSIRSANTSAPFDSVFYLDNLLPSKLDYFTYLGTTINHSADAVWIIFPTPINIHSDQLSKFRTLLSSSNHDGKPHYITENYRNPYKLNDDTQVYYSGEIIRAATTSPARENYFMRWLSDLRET

VACV D8 protein [7] = target: T4, VACV D8 protein; test: purified antigen ELISA
VACV D8 protein [8] = target: T4, VACV D8 protein; test: lysate ELISA
VACV B5 protein [9] = target: T5, VACV B5 protein (vaccinia virus, UniProt Q01227 20-275); test: cell-based or functional assay
VACV B5 protein [10] = target: T5, VACV B5 protein; test: purified antigen ELISA
VACV B5 protein [11] = target: T5, VACV B5 protein; test: lysate ELISA

B1: MPXV-51 (antibody, V domains shown)
VH: QLQLQESGPGLVKPSETLSLSCTVSGGSINSRTYYWGWIRQPPGKGPEWIGTVFHNVSTLYTSSLRSRVTISVDTSKNRFSLKLTSVTAADTAVYFCGRLTPRNLFRGTLVRWVDPWGQGILVTVSS
VL: EIVLAQSPGTLSLSPGERATLSCRASHNLNSNYLAWYQQKPGQAPRLLIYGASSRATGIPDRFTGSGSGTDFTLTISRLEPEDFAVYYCQQYAGSLTFGGGTKVDIK
notes: human IgG1, anti-A33
PRNT Emax, VACV EV+C' (VACV A33 protein [1]): 50% | PRNT IC50, VACV EV+C' (VACV A33 protein [1]): 0.1 µg/mL | EC50 (VACV A33 protein [2]): 0.04 µg/mL | EC50 (VACV A33 protein [3]): 0.05 µg/mL

B2: MPXV-76 (antibody, V domains shown)
VH: EVQLVESGGGLVKPGESLKISCAASGFSFNNAWMNWVRQAPGKGLEWVGRIKTHADGGTTDYAAPVTGRFTISRDDSKNTLSLQMSSLKTEDTAVYYCTTSFTFPRRIFAYWGQGTLV
VL: EIVLTQSPATLSLSPGERATLSCRASQSVSSYLAWYQQKPGQAPRLLIYDTSNRATGIPARFSGSGSGTDFTLTISSLEPEDLAVYYCQLRNSWPPTFGPGTKVDIK
notes: human IgG1, anti-H3
EC50 (VACV H3 protein): 0.008 µg/mL

B3: VACV-22 (antibody, V domains shown)
VH: QVQLVESGGGVVQPGRSLRLSCAASGFTFSNSGMHWVRQAPGKGLEWVAVIWFDGTNKYYADSVKGRFTISRDNSKNTLYLQMNSLRAEDTAVYYCARVPCGGDCYSGYLQHWGQGTLVTVSS
VL: AIVMTQSPATLSVSPGERATLSCRASQSVSSTLAWYQQKPGQAPRLLIYGASTKATGIPARFSGSGSGTEFTLTISSLQSEDFAVYYCQHYNNWPPLLTFGGGTKVDIK
notes: human IgG1, anti-A33
PRNT Emax, VACV EV+C' (VACV A33 protein [1]): 87% | PRNT IC50, VACV EV+C' (VACV A33 protein [1]): 9.7 µg/mL | EC50 (VACV A33 protein [2]): 0.03 µg/mL | EC50 (VACV A33 protein [3]): > 0.008 µg/mL

B4: MPXV-26 (antibody, V domains shown)
VH: QVQLVQSGGGLIQPGGSLRLSCVVSGFNVATNYMSWVRQAPGKGLEWVSVIYSGGSTYYADSVKGRFTISRDNSKNTVFLQMNSLRPEDTAAYYCAKGGGLGLDYWGQGTLVTVSS
VL: QSALTQPPSASGSPGQSVTITCTGSSSDVGGYNYVSWYQQHPGKAPKVVIYEVNKRPSGVPHRFSGSKSGNTASLTVSGLQAEDEADYYCSSYAGTETVAFGGGTKLTVL
notes: human IgG1, anti-L1
PRNT Emax, VACV MV (VACV L1 protein [4]): 95% | PRNT Emax, VACV MV+C' (VACV L1 protein [4]): 80% | PRNT IC50, VACV MV (VACV L1 protein [4]): 0.3 µg/mL | PRNT IC50, VACV MV+C' (VACV L1 protein [4]): 0.7 µg/mL | EC50 (VACV L1 protein [5]): 0.05 µg/mL

B5: VACV-249 (antibody, V domains shown)
VH: QVQLVESGPGLVKPSQTLSLTCTVSGGSISRGIYYWSWIRQPAGKGLEWIGRIYTSGSTNYNPSLKSRVTISVDTSKNQFSLKLSSVTAADTAVYYCARDGWYGWYLDLWGRGTLVTVSS
VL: EIVMTQSPATLSVSPGERATLSCRASQSVSSDLAWYQQKPGQAPRLLIYGASTRATGIPARFSGSGSGTEFTLTISSLQSEDFAVYYCQQYNNWPGTFGGGTKVDIK
notes: human IgG1, anti-D8
PRNT Emax, VACV MV+C' (VACV D8 protein [6]): 70% | PRNT IC50, VACV MV+C' (VACV D8 protein [6]): 0.2 µg/mL | EC50 (VACV D8 protein [7]): 2.8 µg/mL | EC50 (VACV D8 protein [8]): 0.3 µg/mL

B6: VACV-304 (antibody, V domains shown)
VH: EVQLVESGGGLVQPGGSLRLSCVVSGFTFSNYWMSWVRQAPGKGLEWVANIKQDGSKKYYVDSVTGRFTISRDNAKNSLYLQMNSLRAEDTAVYYCATLNLELAVDAISEALKWGQGTLVTVSS
VL: SYELTQPPSVSVSPGQTARITCSGDALPKQFAYWYQQKPGQAPVVMIYKDSERPSGIPERFSGSSSGTTVTLTISGVQAEDEADYYCQSVDNSGTYEVFGGGTQLTVL
notes: human IgG1, anti-D8
PRNT Emax, VACV MV+C' (VACV D8 protein [6]): 69% | PRNT IC50, VACV MV+C' (VACV D8 protein [6]): 0.02 µg/mL | EC50 (VACV D8 protein [7]): 0.05 µg/mL | EC50 (VACV D8 protein [8]): 0.04 µg/mL

B7: VACV-33 (antibody, V domains shown)
VH: QLQLQESGPGLVKPSETLSLTCTVSGGSISSGGYYWGWIRQPPGKGLEWIASIYYSGSTYYNPSLKSRVTISVDTSKTQFSLKLSSVTAADTAVYYCARQSSSTGGFHYWGQGTLVTVSS
VL: QSVLTQPPSVSGAPGQRVTISCTGSSSNIGAGYDVHWYQHLPGTAPKLLIYGNSNRPSGVPDRFSGSKSGTSASLAITGLQAEDEANYYCQSYDSSLSGREVFGGGTQLTVL
notes: human IgG1, anti-L1
PRNT Emax, VACV MV (VACV L1 protein [4]): 56% | PRNT Emax, VACV MV+C' (VACV L1 protein [4]): 71% | PRNT IC50, VACV MV (VACV L1 protein [4]): 0.3 µg/mL | PRNT IC50, VACV MV+C' (VACV L1 protein [4]): 0.7 µg/mL | EC50 (VACV L1 protein [5]): 0.02 µg/mL

B8: MPXV-25 (antibody, V domains shown)
V domain 1: QVQLVESGGGVVQPGRSLKISCAASGFTFSDSGLHWVRQAPGKGLECVAFIWYDGSTKYYADSVKGRFTISRDNSRNTLYLQMKSLRAEDTAVYYCARELGYCSGGTCYSMGAFDIWGQGTLVTVSQ
V domain 2: QSVLTQPASVSGSPGQSITISCTGTSSDVGSYNLVSWYQQHPGKAPKLMIYEVSKRPSGVSNRFSGSKSDNTASLTISGLQAEDEADYYCCSYVGSSTSVFGGGTQVTVL
notes: human IgG1, anti-B5
PRNT Emax, VACV EV+C' (VACV B5 protein [9]): 77% | PRNT IC50, VACV EV+C' (VACV B5 protein [9]): 0.02 µg/mL | EC50 (VACV B5 protein [10]): 0.19 µg/mL | EC50 (VACV B5 protein [11]): 0.066 µg/mL
